In publication doi:10.1101/2020.01.19.911149 (bioRxiv, 2020):

B1: SmF-GFP (natural protein, S. cerevisiae, UniProt P54999 1-86, looked up)
chain: MSESSDISAMQPVNPKPFLKGLVNHRVGVKLKFNSTEYRGTLVSTDNYFNLQLNEAEEFVAGVSHGTLGEIFIRCNNVLYIRELPN
B2: BsHfq-GFP (natural protein, Bacillus subtilis, UniProt O31796 1-73, looked up)
chain: MKPINIQDQFLNQIRKENTYVTVFLLNGFQLRGQVKGFDNFTVLLESEGKQQLIYKHAISTFAPQKNVQLELE

Biological target: the molecule itself
Test: SEC-MALS

Protein | stoichiometry N
B1 | 14
B2 | 6
